{"source": "patent US7419667B2", "about": "“Drug for cancer therapy” (Morinaga Milk Industry Co. Ltd., priority 2004, dated 2008)", "molecules": {"B1": {"name": "Control Sample Group 1: Undecomposed commercially available bovine lactoferrin (Morinaga Milk Industry Co., Ltd.) used as control (protein, listed as Bos taurus)", "chain": "MKLFVPALLSLGALGLCLAAPRKNVRWCTISQPEWFKCRRWQWRMKKLGAPSITCVRRAFALECIRAIAEKKADAVTLDGGMVFEAGRDPYKLRPVAAEIYGTKESPQTHYYAVAVVKKGSNFQLDQLQGRKSCHTGLGRSAGWIIPMGILRPYLSWTESLEPLQGAVAKFFSASCVPCIDRQAYPNLCQLCKGEGENQCACSSREPYFGYSGAFKCLQDGAGDVAFVKETTVFENLPEKADRDQYELLCLNNSRAPVDAFKECHLAQVPSHAVVARSVDGKEDLIWKLLSKAQEKFGKNKSRSFQLFGSPPGQRDLLFKDSALGFLRIPSKVDSALYLGSRYLTTLKNLRETAEEVKARYTRVVWCAVGPEEQKKCQQWSQQSGQNVTCATASTTDDCIVLVLKGEADALNLDGGYIYTAGKCGLVPVLAENRKSSKHSSLDCVLRPTEGYLAVAVVKKANEGLTWNSLKDKKSCHTAVDRTAGWNIPMGLIVNQTGSCAFDEFFSQSCAPGADPKSRLCALCAGDDQGLDKCVPNSKEKYYGYTGAFRCLAEDVGDVAFVKNDTVWENTNGESTADWAKNLNREDFRLLCLDGTRKPVTEAQSCHLAVAPNHAVVSRSDRAAHVKQVLLHQQALFGKNGKNCPDKFCLFKSETKNLLFNDNTECLAKLGGRPTYEEYLGTEYVTAIANLKKCSTSPLLEACAFLTR", "modifications": "sig_peptide (1)...(19) Lactoferrin"}}, "tested_on": "human Burkitt lymphoma Raji cells", "assay": "Test Example 1: cytotoxic action of complement and antibody drug (rituximab) with sample added, PI method", "format": "cell-based", "details": "for Cytotoxic activity (%): 100 μl/well of 1000 μg/ml sample, 1 hour, PI", "experimental": "Test Sample 1 was prepared with the lactoferrin hydrolysate mixture prepared in Preparation Example 1, of which concentration was adjusted to 1000 μg/ml in RPMI 1640 medium (Sigma, catalog number: R8758) containing 7.5% fetal bovine serum (Gibco, catalog number: 10099-141) and 1% penicillin-streptomycin (Gibco, catalog number: 15070-063) [henceforth this solution is referred to as “dilution solution”]. Furthermore, Control Sample 1 was prepared by diluting lactoferrin to a concentration of 1000 μg/ml with the dilution solution.\nAs target cells for measurement of cytotoxic action of complement and antibody drug, human Burkitt lymphoma Raji cells (ATCC CCL-86, obtained from American Type Culture Collection (10801 University Boulevard, Manassas, Va. 20110-2209, USA)) were used, and the cells were suspended at a density of 2×10^6 cells/ml by using the dilution solution to prepare a Raji cell suspension. As an antibody drug solution, rituximab (Zenyaku Kogyo, sold by Nippon Roche) that recognizes the CD20 antigen was used, and it was prepared at a concentration of 200 μg/ml using the dilution solution. As a complement solution, Human serum AB (Cosmobio, catalog number: 832000027) was used. These antibody drug solution and complement solution were also used for Test Examples 2 to 5 described below.\nViability determination of the cells was performed by the method using propidium iodide (PI, Dojindo, catalog number: P378) [Cytometry, Vol. 8, No. 4, pp. 421-426, 1987] or the method using Calcein-AM (Dojindo, catalog number: 341-07901) [Apoptosis, Vol. 3, No. 3, pp. 195-202, 1998].\nThe Raji cell suspension was added to each well of a 24-well culture plate (NUNC, catalog number: 143982) in a volume of 100 μl each (2×10^5 cells each). The 24 wells were divided into four groups, to wells (6 wells) of one group among them, 50 μl/well of the antibody drug solution and 250 μl/well of dilution solution were added as “Addition of antibody drug”. Further, to wells (6 wells) of another group, 100 μl of the complement solution and 200 μl of the dilution solution were added as “Addition of complement”. Furthermore, to wells (6 wells) of another group, 50 μl of the antibody drug solution, 100 μl of the complement solution and 150 μl of the dilution solution were added as “Addition of antibody drug+complement”. To wells (6 wells) of the remaining one group, 300 μl of the dilution solution was added as “No addition”.\nFor the aforementioned four groups, 100 μl/well of Test Sample 1 (4 groups×2 wells), Control Sample 1 (4 groups×2 wells) or the dilution solution (4 groups×2 wells) mentioned above was added as “Test Sample Group 1”, “Control Sample Group 1” and “Negative Sample Group 1”, respectively.\nBy using the 24-well plate prepared as described above, the cells were cultured under the conditions of 37° C. and 5% carbon dioxide (CO2) for 1 hour using an incubator (Napco, catalog number: 5300). Then, the cells of each sample group were collected, and the rate of dead cells in each was examined by the aforementioned method using PI. Cytotoxic activity was calculated based on a case where all the target cells were killed, which was taken as 100%."}
{"molecule": "B1", "values": [{"measurement": "change of cytotoxic activity compared with the negative sample group", "setting": "Addition of antibody drug + complement", "result": "did not increase"}, {"measurement": "Cytotoxic activity (%)", "setting": "Addition of antibody drug + complement (rituximab, human serum AB)", "result": 24.3, "unit": "%"}, {"measurement": "Cytotoxic activity (%)", "setting": "Addition of antibody drug only", "result": 1.0, "unit": "%"}, {"measurement": "Cytotoxic activity (%)", "setting": "Addition of complement only", "result": 1.2, "unit": "%"}, {"measurement": "Cytotoxic activity (%)", "setting": "No addition (no antibody drug, no complement)", "result": 1.0, "unit": "%"}]}
